Legend:
[1] = target: T1, EpCAM (native, on primary lung cancer cells) (Homo sapiens (patient NSCLC tumor cells)) (UniProt P16422); assay: competition (flow cytometry); conditions: DPBS, 25 °C, 30 min; cells (3×10^5) pre-incubated with 1 ng/uL salmon sperm DNA; DNA pools/library heated to 95 °C 5 min then on ice 10 min; pH not stated
T1 sequence: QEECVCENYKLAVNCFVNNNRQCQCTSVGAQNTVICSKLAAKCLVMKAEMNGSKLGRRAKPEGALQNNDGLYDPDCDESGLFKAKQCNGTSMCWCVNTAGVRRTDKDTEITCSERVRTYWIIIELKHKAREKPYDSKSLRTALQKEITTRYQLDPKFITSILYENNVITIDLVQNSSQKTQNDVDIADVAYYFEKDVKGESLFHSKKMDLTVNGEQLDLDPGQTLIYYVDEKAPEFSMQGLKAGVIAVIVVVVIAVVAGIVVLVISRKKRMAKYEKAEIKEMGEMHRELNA

[2] = target: T1, EpCAM (native, on primary lung cancer cells) (Homo sapiens (patient NSCLC tumor cells)); assay: flow cytometry (cell binding); conditions: apparent Kd on whole primary lung cancer cells; 1-300 nM aptamer; DPBS, 25 °C, 30 min; cells (3×10^5) pre-incubated with 1 ng/uL salmon sperm DNA; DNA pools/library heated to 95 °C 5 min then on ice 10 min; pH not stated

Sequence | binding signal (% of cells releasing aptamer) [1] | Kd [2] [nM] | binding signal (% displaced by antibody) [1]
CTCCTCTGACTGTAACCACGGTGCGCGTACCACCATGTGTACACACTGCATGTTTGGTTAGCATAGGTAGTCCAGAAGCC [EPCAM-APT-02 (ECM_02)] | 18 | 15 | –
CTCCTCTGACTGTAACCACGACACGCACAAATGTCAGTGTACCGCACTCGCACATTCTTAGCATAGGTAGTCCAGAAGCC [EPCAM-APT-01 (ECM_01)] | – | 25 | 15
